Patent US20250019652A1, “PRODUCTION METHOD FOR SHEET-LIKE RETINAL TISSUE” (RIKEN, priority 2021, published 2025)

B1: FGF8: fibroblast growth factor, FGF signaling pathway agonist (protein, UniProt P55075 23-233, looked up)
Fibroblast growth factor 8: QEGPGRGPALGRELASLFRAGREPQGVSQQHVREQSLVTDQLSRRLIRTYQLYSRTSGKHVQVLANKRINAMAEDGDPFAKLIVETDTFGSRVRVRGAETGLYICMNKKGKLIAKSNGKGKDCVFTEIVLENNYTALQNAKYEGWYMAFTRKGRPRKGSKTRQHQREVHFMKRLPRGHHTTEQSLRFEFLNYPPFTRSLRGSQRTWAPEPR
B2: FGF4: fibroblast growth factor, FGF signaling pathway agonist (protein, UniProt P08620 31-206, looked up)
Fibroblast growth factor 4: APTAPNGTLEAELERRWESLVALSLARLPVAAQPKEAAVQSGAGDYLLGIKRLRRLYCNVGIGFHLQALPDGRIGGAHADTRDSLLELSPVERGVVSIFGVASRFFVAMSSKGKLYGSPFFTDECTFKEILLPNNYNAYESYKYPGMFIALSKNGKTKKGNRVSPTMKVTHFLPRL
B3: BMP4: exogenous human recombinant BMP4, BMP signaling pathway agonist (protein, UniProt P12644 293-408, looked up)
Bone morphogenetic protein 4: SPKHHSQRARKKNKNCRRHSLYVDFSDVGWNDWIVAPPGYQAFYCHGDCPFPLADHLNSTNHAIVQTLVNSVNSSIPKACCVPTELSAISMLYLDEYDKVVLKNYQEMVVEGCGCR

How the values were obtained:
Format in all cases: cell-based, human
[1] = system: CD39-sorted cells of Islet-1 KO KhES-1-derived aggregates (NR); experiment: Islet-1 KO hESC-retina sheet prepared by sorting with CD39 and addition of FGF8 (Example 26); conditions: 50 ng/mL FGF8; Day 73
Description: For aggregates differentiated with 300 nM SAG at the start of suspension culture (at the start of differentiation, dd0), the aggregates (NR) of Day 25 from initiation of the suspension culture were dispersed into single cells and stained at 37° C. for 15 minutes using anti-CD39-APC conjugate antibody (Miltenyi Biotec). Then, sorting was carried out with CD39-APC as an index using Cell sorter ARIAII (Becton, Dickinson and Company). The cells after sorting were seeded at 8.0×10^5 cells per well into 12-well Transwell coated with collagen gel. […] As a control, a group that was not supplemented with FGF8 (FGF8−) was also established.
Medium replacement was carried out once every 3 to 4 days. FGF8 was also added at the time of medium replacement.

[2] = system: Rx::Venus-sorted cells (KhES-1-derived NR, Day 25); experiment: Search of factor that maintains property of retina at preparation into sheet again (Example 18); set-up: expression intensity of Rx::Venus, concentration dependency: dose or concentration left out as unconfirmed; conditions: for expression intensity of Rx::Venus: compared with PBS control, 10 days after seeding
Description: (§1) The aggregates (NR) of Day 25 from initiation of the suspension culture prepared in Example 1 were washed with PBS, and a neuronal cell dispersion solution (manufactured by FUJIFILM Wako Pure Chemical Corp.) was added. After incubation at 37° C., they were dispersed into single cells by pipetting, and sorting was carried out with Rx::Venus as an index using Cell sorter ARIAII (Becton, Dickinson and Company).
3 days after seeding, the medium was similarly replaced so as to maintain the concentrations of the low-molecular compounds or the proteins described in Tables 1 and 2. […] 10 days after seeding, fixation was performed in 4% PFA, and the evaluation of the cells after sorting was conducted with Rx::Venus as an index under a fluorescence microscope (BZ-X810 manufactured by Keyence Corp.).

[3] = system: Rx::Venus-sorted NR cells on Transwell (KhES-1-derived); experiment: Effect of FGF8 at preparation into sheet again, microscopy and FACS (Example 20)
Description: as §1, with “24” for “25”, “Company). […] As a control, a group that was not supplemented with FGF8 (FGF8−) was also established.” for “Company).”
Medium replacement was carried out once every 3 to 4 days. FGF8 was also added at the time of medium replacement. Sheets after a lapse of differentiation for 63 days and 40 days after reseeding were observed under a fluorescence stereo microscope (FIGS. 60 and 61). For FACS analysis, the aggregates of Differentiation Day 64 and Day 41 after reseeding were washed with PBS and dispersed into single cells using a neuronal cell dispersion solution (manufactured by FUJIFILM Wako Pure Chemical Corp.). Then, formaldehyde fixation was performed using Fixation buffer (Becton, Dickinson and Company).
Thereafter, after fixation using Fixation buffer (Becton, Dickinson and Company) and washing with Perm/Wash buffer (Becton, Dickinson and Company), staining was performed with anti-CHX10-Alexa Fluor 647 conjugate antibody (Santa Cruz Biotechnology), anti-Sox2-BV421 conjugate antibody (BioLegend, Inc.), anti-Ki67 antibody (Becton, Dickinson and Company), and anti-CRX-Alexa Fluor 647 conjugate antibody (Santa Cruz Biotechnology). After washing of the antibodies with Perm/Wash buffer (Becton, Dickinson and Company), measurement was performed using FACSCantoII (BD Biosciences), and analysis was conducted using FlowJo. As a control, neural retinal tissue having the same number of differentiation days that was not reorganized was also established (FIG. 62).

[4] = system: sorted or unsorted dispersed NR cells (KhES-1 Rx::Venus); experiment: Aggregate reforming by addition of FGF8 and retinal differentiation, microscopy and FACS (Example 19)
Description: as §1, with “24” for “25”, “Company). The cells after sorting were seeded at 2.0 to 5.0×10^4 cells per well to a low adhesive V plate. As controls, a group that was not supplemented with FGF8 (FGF8−) and a group that was not sorted (unsorted) were also established.” for “Company).”
Medium replacement was carried out once every 3 to 4 days. FGF8 was also added at the time of medium replacement. […] RPE cells were partially observed in the sorted FGF8− group.
Further, the aggregates of Culture Day 54 for aggregate reforming (Day 30 after reseeding) were washed with PBS and dispersed into single cells using a neuronal cell dispersion solution (manufactured by FUJIFILM Wako Pure Chemical Corp.). Then, formaldehyde fixation was performed using Fixation buffer (Becton, Dickinson and Company). Thereafter, after washing with Perm/Wash buffer (Becton, Dickinson and Company), staining was performed with anti-CHX10-Alexa Fluor 647 conjugate antibody (Santa Cruz Biotechnology), anti-Sox2-BV421 antibody (BioLegend, Inc.), anti-Ki67-Alexa Fluor 647 conjugate antibody (Becton, Dickinson and Company), and anti-CRX-Alexa Fluor 647 conjugate antibody (Santa Cruz Biotechnology). After washing of the antibodies with Perm/Wash buffer (Becton, Dickinson and Company), measurement was performed using FACSCantoII (BD Biosciences), and analysis was conducted using FlowJo. As a control, neural retinal tissue having the same number of differentiation days that was not reorganized was also established.

[5] = system: KhES-1 Rx::Venus aggregates; experiment: Differentiation with or without BMP4: retinal tissue versus brain organoid (Example 23); conditions: group supplemented with BMP4
Description: Human ES cells (KhES-1 strain (Non Patent Literature 3)) genetically engineered so as to have Rx::Venus reporter gene were cultured under feeder-free conditions in accordance with the method described in “Scientific Reports 4, 3594 (2014)”. As a feeder-free medium, StemFit medium (trade name: AK03N, manufactured by Ajinomoto Co., Inc.) was used, and as a scaffold in place of feeder cells, Laminin511-E8 (trade name, manufactured by Nippi, Inc.) was used. 300 nM SAG was added at the start of suspension culture (at the start of differentiation), and brain organoid was prepared on Day 3 from initiation of the suspension culture without adding BMP4. As a control, a group supplemented with BMP4 was established. Fluorescence microscope observation was performed as to the brain organoid of Day 26 from initiation of the suspension culture prepared in this way (FIG. 70). […] Further, these aggregates were fixed in 4% PFA. Sections were prepared and stained with DAPI and anti-FoxG1 antibody (Takara Bio Inc.), and observation was performed under a fluorescence microscope (BZ-X810 manufactured by Keyence Corp.). […] On the other hand, in the group that was not supplemented with BMP4, FoxG1 positive was confirmed, and it was confirmed that brain organoid was differentiated (FIG. 71).

[6] = versus neural retinal tissue not reorganized
[7] = sorted group supplemented with FGF8

Row | Molecule | distribution of Crx::Venus cell populations in sheet [1] | expression intensity of Rx::Venus, concentration dependency ([2]; FGF8) | expression intensity of Rx::Venus [2] | Rx::Venus positive rate (FACS) ([3]; group supplemented with FGF8, Day 41 after reseeding) [%] | black RPE in sheet ([3]; sheets supplemented with FGF8) | distribution of Rx::Venus-positive cells in sheet ([3]; sorted then supplemented with FGF8, 40 days after reseeding) | percentage of Chx10-positive and Sox2-positive neural retinal progenitor cells or Crx-positive photoreceptor progenitor cells [3, 6] | percentage of Rx::Venus-positive and Ki67-positive proliferative retinal cells [3, 6] | percentage of Chx10-positive and Sox2-positive neural retinal progenitor cells [4, 7] | percentage of Crx-positive photoreceptor progenitor cells [4, 7] | RPE cells or Rx::Venus-negative masses ([4]; sorted, FGF8+, Day 10 after reseeding) | Rx::Venus positive rate (FACS) ([4]; unsorted group supplemented with FGF8, Day 30 after reseeding) | Rx::Venus-negative cell masses or RPE cells ([4]; unsorted, FGF8+, Day 10 after reseeding) | FoxG1 staining [5] | differentiated tissue (Rx::Venus) ([5]; Day 26)
1 | B1 | uniformly present | the highest expression intensity of Rx::Venus | high expression intensity of Rx::Venus | ≥ 95 | hardly observed | Rx::Venus-positive cells were uniformly present in the whole wells | equivalent as compared with neural retinal tissue | tended to be large as compared with neural retinal tissue | high | tended to be low | RPE cells or Rx::Venus-negative masses were not observed | the Rx::Venus positive rate tended to be high | these cell masses were observed to decrease |  | 
2 | B2 |  |  | high expression intensity of Rx::Venus |  |  |  |  |  |  |  |  |  |  |  | 
3 | B3 |  |  |  |  |  |  |  |  |  |  |  |  |  | FoxG1 was negative | Rx::Venus-positive retinal tissue was observed to be differentiated
